Test results published in article PMC2760748.

Key:
GST-p53 = experiment: DNA-protein ELISA; details: EMSA: 100 ng p53 (or 5 ug KB nuclear extract), 3 ng probe, 30 min at RT, 4% native PAGE with 0.5x TBE, buffer per ref [25]; ELISA: p53 in PBS on PAb421, 0.5 ug …
His-p53 = experiment: DNA-protein ELISA; details: EMSA: 100 ng p53 (or 5 ug KB nuclear extract), 3 ng probe, 30 min at RT, 4% native PAGE with 0.5x TBE, buffer per ref [25]; ELISA: p53 in PBS on PAb421, 0.5 ug …

Q: What does the source list for biotin-p21-5'-DBS?
A: binding signal (% protection of DBS binding) (GST-p53): 60; binding signal (% protection of DBS binding) (His-p53): 60
